# Measured values as given in patent US20170035894A1, “DRUG DELIVERY CONJUGATES FOR TREATING RESISTANT CANCER AND FOR USE IN COMBINATION THERAPY” (ENDOCYTE, INC., priority 2014, published 2017).
# Entries after “also recorded” stand apart in the source; their conditions may differ. Where two headings read alike, the source gives them in different places. Marks after values point to notes of the source that are not given here.
# Assays:
# KB cells = assay type: cell-based, human
# Experimental: METHOD. Inhibition of Cellular DNA Synthesis. The compounds described herein were evaluated using an in vitro cytotoxicity assay that predicts the ability of the drug to inhibit the growth of folate receptor-positive cells, such as KB cells, RAW264.7 macrophages, and the like. It is to be understood that the choice of cell type can made on the basis of the susceptibility of those selected cells to the drug that forms the conjugate. The test compounds were comprised of folate linked to a respective chemotherapeutic drug, as prepared according to the processes described herein. The test cells were exposed to varying concentrations of folate-drug conjugate, and also in the absence or presence of at least a 100-fold excess of folic acid to assess activity as being specific to folate receptor mediation.
# Conjugates of cytotoxic drugs described herein are active against KB cells. The activity is mediated by the folate receptor as indicated by competition experiments using co-administered folic acid. KB cells were exposed for up to 7 h at 37° C. to the indicated concentrations of folate-drug conjugate in the absence or presence of at least a 100-fold excess of folic acid. The cells were then rinsed once with fresh culture medium and incubated in fresh culture medium for 72 hours at 37° C. Cell viability was assessed using a ^3H-thymidine incorporation assay. For compounds described herein, dose-dependent cytotoxicity was generally measurable, and in most cases, the IC50 values (concentration of drug conjugate required to reduce ^3H-thymidine incorporation into newly synthesized DNA by 50%) are in the low nanomolar range.
# (§1) METHOD. In vitro activity against various cancer cell lines. IC50 values were generated for various cell lines. Cells were heavily seeded in 24-well Falcon plates and allowed to form nearly confluent monolayers overnight. Thirty minutes prior to the addition of the test compound, spent medium was aspirated from all wells and replaced with fresh folate-deficient RPMI medium (FFRPMI). A subset of wells were designated to receive media containing 100 μM folic acid. The cells in the designated wells were used to determine the targeting specificity. Without being bound by theory it is believed herein that the cytotoxic activity produced by test compounds in the presence of excess folic acid, i.e. where there is competition for FR binding, corresponds to the portion of the total activity that is unrelated to FR-specific delivery. Following one rinse with 1 mL of fresh FFRPMI containing 10% heat-inactivated fetal calf serum, each well received 1 mL of medium containing increasing concentrations of test compound (4 wells per sample) in the presence or absence of 100 μM free folic acid as indicated. Treated cells were pulsed for 2 h at 37° C., rinsed 4 times with 0.5 mL of media, and then chased in 1 mL of fresh medium up to 70 h. Spent medium was aspirated from all wells and replaced with fresh medium containing 5 μCi/mL ^3H-thymidine. Following a further 2 h 37° C. incubation, cells were washed 3 times with 0.5 mL of PBS and then treated with 0.5 mL of ice-cold 5% trichloroacetic acid per well. After 15 min, the trichloroacetic acid was aspirated and the cell material solubilized by the addition of 0.5 mL of 0.25 N sodium hydroxide for 15 min. A 450 μL aliquot of each solubilized sample was transferred to a scintillation vial containing 3 mL of Ecolume scintillation cocktail and then counted in a liquid scintillation counter. Final results are expressed as the percentage of ^3H-thymidine incorporation relative to untreated controls.
# LU2505 NSCLC tumors = test: Huprime NSCLC PDX tumor model; assay type: in vivo, Balb/c nu/nu mice; conditions: in combination with Docetaxel
# Experimental: (§2) Female Balb/c nu/nu mice were fed ad libitum with folate-deficient chow (Harlan diet #TD01013) for the duration of the experiment. Primary human NSCLC models LU1147 or LU2505 fragments (2-4 mm in diameter) were inoculated subcutaneously at the right flank of each mouse. Mice were randomized into experimental groups of 7 mice and test articles were injected through the lateral tail vein under sterile conditions in a volume of 200 μL of phosphate-buffered saline (PBS). These studies were performed at Crown Bioscience (Beijing) Inc., Ground Floor, Light Muller Building, Changping Sector of Zhongguancun Scientific Park, No. 21 Huoju Road, Changping District, Beijing, P.R. China.
# (§3) Growth of each s.c. tumor was followed by measuring the tumor two times per week until a volume of 1200 mm^3 was reached. Tumors were measured in two perpendicular directions using Vernier calipers, and their volumes were calculated as 0.5×L×W^2, where L=measurement of longest axis in mm and W=measurement of axis perpendicular to L in mm.
# LU1147 NSCLC tumors = test: Huprime NSCLC PDX tumor model; assay type: in vivo, Balb/c nu/nu mice; conditions: combined with Docetaxel (one dose of 15 mg/kg)
# Experimental: as §2, §3
# [1] = Toxicity as measured by weight loss / gross animal toxicity in tumor-bearing mice; conditions: for Toxicity Avg. Weight Loss / Toxicity Deaths (%): TIW
# Experimental: METHOD. Toxicity as Measured by Weight Loss. The percentage weight change of the test animals was determined on selected days post-tumor inoculation (PTI), and during dosing. The results were graphed.
# Evaluation. Tumor size was monitored and body weight measured 3 times/week. Attention was given to gross animal morphology and behavior. Euthanasia was performed if the mice lost >20% of weight or when the tumors reached a size of 1500 mm3. Euthanasia was also performed at the researcher's discretion if mice lost a lot of weight in a short duration or when mice were approaching moribund conditions. Blood samples were collected by cardiac puncture from all viable animals from selected cohorts. Heart, lungs, liver, spleen, kidney, intestines, bone, brain and muscle were obtained immediately after euthanasia. The tissues were removed and stored in 10% neutral-buffered formalin.
# H23 = test: In vitro activity against cancer cell lines, 3H-thymidine incorporation; assay type: cell-based, human; conditions: FR expression −; evaluated from 0.1-100 nM
# Experimental: as §1
# NCl/ADR-RES-Cl2 = test: as above; assay type: cell-based, human
# Experimental: as §1
# [2] = difference in IC50 between competed and non-competed group
# [3] = EC1456 2 μmol/kg two times a week for two weeks
# [4] = EC1456 4 μmol/kg once a week for two weeks
# [5] = KB tumors, 0.5 μmol/kg, 3 weeks
# [6] = KB tumors, 0.67 μmol/kg, 2 weeks
# [7] = KB tumors, 1.0 μmol/kg, 2 weeks
# [8] = KB tumors, 2.0 μmol/kg, 2 weeks
compound,measurement,setting,value
CCCC(=O)OCN(C(=O)[C@@H](NC(=O)[C@H]1CCCCN1C)C(C)CC)[C@H](C[C@@H](OC(C)=O)c1nc(C(=O)N[C@@H](Cc2ccc(O)cc2)C[C@H](C)C(=O)NNC(=O)OCCSSC[C@@H](NC(=O)[C@H](CCC(=O)NC[C@H](O)[C@@H](O)[C@H](O)[C@H](O)CO)NC(=O)[C@@H](CCC(=O)O)NC(=O)[C@H](CCC(=O)NC[C@H](O)[C@@H](O)[C@H](O)[C@H](O)CO)NC(=O)[C@@H](CCC(=O)O)NC(=O)[C@H](CCC(=O)NC[C@H](O)[C@@H](O)[C@H](O)[C@H](O)CO)NC(=O)CC[C@@H](NC(=O)c2ccc(NCc3cnc4nc(N)[nH]c(=O)c4n3)cc2)C(=O)O)C(=O)O)cs1)C(C)C (stereo in doubt) [EC1456],IC50,"KB cells; FR expression +++, read-out: Activity (IC50)",2.3 nM
same,IC50,"KB cells; IC50 when competed with excess folic acid, read-out: 50% competition (nM) (c)",1420 nM
same,IC50,"KB cells; as determined by thymidine incorporation, read-out: In vitro IC50 (nM) (b)",1.5 nM
same,In vitro specificity (fold) (d),KB cells; [2],944 fold
same,specificity for the folate receptor as determined by folic acid competition,KB cells; [2],ca. 1000 fold
same,Competable up to 100 nM,KB cells; folic acid competition,Yes
same,improvement in specificity compared to comparator compound EC0531,KB cells; folic acid competition,4 fold
same,cures,LU2505 NSCLC tumors; [3],100%
same,cures,LU2505 NSCLC tumors; [4],100%
same,PRs,LU1147 NSCLC tumors; [3],5
same,cures,LU1147 NSCLC tumors; [3],2
same,PRs,LU1147 NSCLC tumors; [4],5
same,cures,LU1147 NSCLC tumors; [4],2
same,whole animal toxicity as determined by animal body weight,"[1]; KB tumors in nu/nu mice, 1 μmol/kg TIW, 2 weeks",did not result in any observable whole animal toxicity; also recorded: did not show any evidence of whole animal toxicity
same,gross animal toxicity,"[1]; KB tumors, carboplatin/paclitaxel study, EC1456 alone 1 μmol/kg BIW×2",Gross animal toxicity was not observed
same,toxicity,"[1]; KB tumors, carboplatin/paclitaxel study, carboplatin in combination with EC1456",Mild toxicity
same,Toxicity Avg. Weight Loss,[1]; [5],<5%*
same,Toxicity Deaths (%),[1]; [5],0%
same,Toxicity Avg. Weight Loss,[1]; [6],<2%
same,Toxicity Deaths (%),[1]; [6],0%
same,Toxicity Avg. Weight Loss,[1]; [7],<1.5%
same,Toxicity Deaths (%),[1]; [7],0%
same,Toxicity Avg. Weight Loss,[1]; [8],<3%
same,Toxicity Deaths (%),[1]; [8],0%
same,gross animal toxicity,"[1]; KB tumors, EC1456 alone 1 μmol/kg BIW×2",Gross animal toxicity was not observed
same,gross animal toxicity,"[1]; KB tumors, EC1456 alone 1 μmol/kg TIW×5",Gross animal toxicity was not observed
same,toxicity,"[1]; KB tumors, cisplatin 3 mg/kg BIW×3 in combination with EC1456",Mild toxicity
same,toxicity,"[1]; KB tumors, docetaxel 7 mg/kg BIW×3 in combination with EC1456",Mild toxicity
same,weight loss / host animal toxicity,"[1]; KB-CR2000 tumors, EC1456 2 μmol/kg TIW 2 weeks",did not exhibit significant host animal toxicity; also recorded: did not cause any weight loss
same,gross animal toxicity,"[1]; KB-DR150 tumors, EC1456 alone 2 μmol/kg TIW×2",Gross animal toxicity was not observed
same,toxicity,"[1]; KB-DR150 tumors, doxorubicin in combination with EC1456",Mild toxicity
same,gross animal toxicity,"[1]; M109 tumors, EC1456 alone 2 μmol/kg TIW×2",Gross animal toxicity was not observed
same,toxicity,"[1]; M109 tumors, cisplatin in combination with EC1456",Mild toxicity
same,weight loss / gross whole animal toxicity (% weight change),"[1]; MDA-MB-231 tumors, 2 μmol/kg i.v. TIW 2 weeks",did not cause gross whole animal toxicity; also recorded: not accompanied by significant weight loss
same,gross animal toxicity,"[1]; P-1635 KB tumors, EC1456 alone 1 μmol/kg TIW×2",Gross animal toxicity was not observed
same,toxicity,"[1]; P-1635 KB tumors, carboplatin 50 mg/kg TIW in combination with EC1456",Mild toxicity
same,Activity (IC50),H23,Inactive
same,IC50,NCl/ADR-RES-Cl2; FR expression ++,1.4 nM
same,Competable up to 100 nM,NCl/ADR-RES-Cl2; folic acid competition,Yes
